Laboratory results: the DeepSol protein solubility set

Test: soluble on expression in E. coli; label from the status in PepcDB or PDB records

Soluble on expression in E. coli, not soluble:
MSLYSDSVTHCLQTCNSPYQKSEKDHRRLSLFAARLFLYNLALFNQFDISMTQSIWRSVTPQFEQFNKVFENYPNLAPISLIEIQPRLTSALEQFVHLKGFSRILLINAPDNSIYRSLFKDALLEQDLDVPVVSTETLDISEILGQVKVEHGGLVHKTSGYLEQANGGYLIVSANLLLANPRYWPTVKAAVLGETVSPINCDPKSPLPNRLGSSYDVKLIVVGDRTQLGDLDFLDADIHSGLCLFSELELDLKIEEETIEDYLGYLRWLCEQYNLPSLTCSAIQSLMTAGARYTEDQYYAPLCLMWHRALLEEARLESEEPLIDAEHIEIALDKRYLRESYLPERALDDILDGQVIIETQGEQVGQVNGLTVIEVTGHPMPYGEPARISCVIHFGDGDIADVERKVELGGNLHAKGMMIMQAFVSSALNLDGSLPFSASIVFEQSYSEVDGDSASLAELCSLVSALSEYPIDQQIAVTGAVDQFGRVQAVGGLNEKIEGFYRVCCHQGLTGEQGVILPSSNLKHLALHKSVVESIKNGEFNIWPVSTVDEAIPLLMGKPFRGEDEGHHHHHH, MSMIHKFSMNGYNIVLDVNGGAVHVLDDVAYDLLDFYKEKSKEEILEILKSKYQEEKINEAYEEILNLEKEGLLYTEDTYQYHPSFVHREPVVKALCLNVAHDCNLKCKYCFAAQGDFGGEKELMSFEVGKAAIDYLIANSGSRKNLEIDFFGGEPLMNFEVVKQLVDYGRSVEKDYNKNIRFTITTNGVLLNDEIIDYINENMHNVVLSLDGRKEVNDNMRPTLNDKGSYDITLPRFKKLVEKRSKDKYYYIRGTFTRDNLDFSKDVMHFADLGFKLTSVEPVVGDESNPYALREEDLPKIFEEYEKFAVEYADRQLQGDGFKFFHFMIDLNQGPCVIKRITGCGAGNEYLSVTPNGDIYPCHQFVGNEEFKMANIFDEEIVLPENLKNMFREAHVYTKEECKQCWNKFYCSGGCHANAINFNSDISKPYELGCEMQRKRTECSIMIQAKLMLEGATN, MSNDGDLNIDNLITRLLEVRGCRPGKPVTMSEAEIRALCHKSREIFLSQPILLELEAPLKICGDIHGQYNDLLRLFEYGGFPPEANYLFLGDYVDRGKQSLETICLLLAYKVKYPENFFLLRGNHECASINRIYGFYDECKRRFSIKLWKTFTDCFNCLPIAALIDEKIFCCHGGLSPDLQNMEQIRRVMRPTDVPDTGLLCDLLWSDPDKDVTGWGENDRGVSFTFGPDVVAKFLNRHDLDLICRAHQVVEDGYEFFAKRQLVTLFSAPNYCGEFDNAGGMMSVDETLMCSFQILKPSEKKAKYQYQGMNSGRPAVGGGRPGTTAGKK, MSNHIDRDVINALIAGHFADPFSVLGMHRTDAGLEVRALLPDATDVWVIEPKTGRKVGKLECLDSRGFFSGVLPRRKNAFRYQLAVTWHGQQNLIDDPYRFGPLLQ, MSNKTSIEGLSALLHTLMLIPQHRWITVRELQQQLALLDIHRTTRSIKRYLDEVIVEVFNVECDSMSMPHVYRKTSEQLLKLNKQEMLYWQLTNKYLLPLVPDALNYGQGSSSERDKPLPHKASAHSKEQEWLAKVHVVLPTIREWNDEQRQVLNAVHTALLHNRMLKISSQVLQQEKALIEPLGLSVQCDALLLLFRLSGQHTIRTLALPLIDEATVSTFSFTYPTDFNLERFMREHDGVSAS, MSNPITITESAQSHFAKLLAQQPEGTNIRVFVVNPGTQNAECGVSYCPPEAVEATDTEYPFSGFSAYVDELSLPFLEEAVIDFVTDKMGSQLTLKAPNAKMRKVSDDASLMERVEYALQTQVNPQLAGHGGHVRLISISDDGVALVQFGGGCNGCSMVDVTLKEGIEKELLAQFAGELTAVRDSTEHDRGEHSYY, MSNPQDDKPIDQEQEAHVILKVKSQDGDEVLFKNKKSAPLKKLMYVYCDRRGLKLDAFAFIFNGARIGGLETPDELDMEDGDVIDACRAMSGGLRANQRQWSYMLFDHNGL

Soluble on expression in E. coli, soluble:
MSLYTASQLLDKINSHISDIRFTRTPAGLYDPIKYVLSMGGKRIRPVLMLMAYNLYKEDVSSIYDPATAIEVYHNYTLLHDDLMDRADMRRGKTTVHKVWNDNTAILSGDAMLVLAYQYMAASSSEHLKEVMDLFSLTALEICEGQQMDMNFESREDVKEEEYLEMIRLKTAVLLAASLKIGAILGGASPEDAENLYDFGMQIGVAFQLQDDLLDVYGDPAVFGKNIGGDILCNKKTYMLIKALERADRDQLEGLNHWLSATSFCPEEKISAVTELYTQIGIKAVCENKMREYYTRAMTSLGAVSVIEDKKSELKKLMKHLMYREGHHHHHH, MSMENFAQLLEESFTLQEMNPGEVITAEVVAIDQNFVTVNAGLKSESLIDVAEFKNAQGEIEVKVGDFVTVTIESVENGFGETKLSREKAKRAADWIALEEAMENGDILSGIINGKVKGGLTVMISSIRAFLPGSLVDVRPVKDTSHFEGKEIEFKVIKLDKKRNNVVVSRRAVLEATLGEERKALLENLQEGSVIKGIVKNITDYGAFVDLGGIDGLLHITDLAWRRVKHPSEVLEVGQEVEAKVLKFDQEKQRVSLGMKQLGEDPWSGLTRRYPQGTRLFGKVSNLTDYGAFVEIEQGIEGLVHVSEMDWTNKNVHPSKVVQLGDEVEVMILEIDEGRRRISLGMKQCQANPWEEFAANHNKGDKISGAVKSITDFGVFVGLPGGIDGLVHLSDLSWTESGEEAVRKYKKGEEVEAVVLAIDVEKERISLGIKQLEGDPFGNFISVNDKGSLVKGSVKSVDAKGAVIALSDEVEGYLPASEFAADRVEDLTTKLKEGDEVEAVIVTVDRKNRSIKLSVKAKDAKESREALNSVNAAANANAGTTSLGDLLKAKLSGEQELEHHHHHH, MSMGKQGVKTAVPKLRFPEFRHSEAWELKKLSCFLVEQKKRNKNLSFGPQEVLSVSGEHGCVNQIELLGRSYAGVSLANYHVVETGDIVYTKSPLKRNPFGIIKENKGKPGVVSTLYAVYRTTVFGNPAFLDHYFSGDYNLNSYLQPIVRKGAKNDMKVSNAAVLAGEVFAPEVEEQKKIADFLTSLDDLISVQVLKVEALKVHKRGLMQELFPREGEASPRLRFPEFSNASGWTLGKASDIIDVLQGYGFPERLQGGREGNFPFYKVSDISACVDAGGILLDKANNHIDADVLEELRAKLMPIGSTVFAKIGEAIRSNKRAITSRPCLVDNNVAGVKAITGLAHDRFVYYMWCQIPLIEYAGGVVPAVKKSLMEQIPVCYPKFDEQQRIADFLSSLDAKIAAEFDQLAALRTHKKGLMQQLFPLSEVGLLEHHHHHH, MSMIETWTAVDQYVSDVLIPKDSTLEEVLQVNAAANLPAHDVSPTQGKFLQLLVQIQGARNILEIGTLGGYSTIWLARGLSSGGRVVTLEASEKHADIARSNIERANLNDRVEVRTGLALDSLQQIENEKYEPFDFIFIDADKQNNPAYFEWALKLSRPGTVIIGDNVVREGEVIDNTSNDPRVQGIRRFYELIAAEPRVSATALQTVGSKGYDGFIMAVVKE, MSNGGKRPPEDDSKLPYYKLVVIGDGGVGKSSLTIQFFQKQFVDYYDPTIEDQYIQHCEIDGNWVIMDVLDTAGQEEFSAMREQYIRGGRGFLLVFSVTERKSFEEAHKLYNQVLRVKDRSEYPVLLVANKVDLINQRVVSEQEGRELAAQLKLMYIETSAKEPPVNVDAAFHELVRIVRSFPSDEGDHEASMASVPRTKKRKDKGKCLIS, MSNNNKYFTITKKQYKKMRRNKIELLFNVKVLKKKNGRQKFKILHEVENKPKIPIKIIEDQPESPKPLKPPKPPKPPKGPDNPEEPDSPEEPKETDQPGGPDNPNAGNKKMPTPEEYVTRKEFNEFKDSNNQRLTKIENKVDKLEVKVDKLAEIVQTQGEEIKELKVEQKAQSETLQLILKTLQKMNDRLDRMETRLDKIDSPKLEHHHHHH, MSNQRDYTLIIDKSGSMSIIEPKFQKSRWELVQESTLALARKCDQLDANGITVYTFSGKFRRYDNVNASKVEQIFQENEPVGGTNLTAVLQDALNNFLQRKKSNQAPTGETILVITDGEPNDRRSVFEIIIQASKCLDADEELAISFMQIGNDPSATKFLQALDDQLMEVGAKFDIVDTVTFDEMEDLTLTEVLLNAIEDLEHHHHHH, MSNVVVCALYKFVSLPHFESLREPLLSMMEQAEIKGTLLLASEGINGTVAGNQAAIDALLIWLNQQNGLENITYKLSFDDEMPFYRTKVKLKKEIVTMGVEGIDPLKVVGTYVKPKDWNALISDPEVVLVDTRNDYEVQIGTFKNAINPVTETFREFPEYVKQNLDPAKHKKVAMFCTGGIRCEKSTAYLKEQGFEEVYHLEGGILKYLEEVNKAESLWEGECFVFDNRVAVDHDLKKGQYDQCNACRMPITEAEKLTPDYVQGVSCPHCIDKISEEQRKRFVERERQVNLAKSRNEAHIGSDVNHVIEARRQKKEALRKQSAEKNKAKQANALEHHHHHH, MSPDFLVTHSGGFHADELLSSVILTRLFPQARLIRSRAPEWITPAPGRIIYDVGGAYDPAAGIFDHHQRGAPQRDDGQPYSSFGLIWKHYGREYLAASGLPDHHVEALHAAFDTGFVLPIDLTDNGALSPSGPLAGLMLPALLETLKPVFDEAEPAADDRAFHAALAIARSFVDAGIAQRAAKLRAEAIVYRAIGDAGQGRILELPRGMPFRPAIVKAGADHLLFVVHPREKDWCVTGIRRAEDGFELRADLPAAWAGLTNGELEAVCGIEGASFCHNGRFVAAAKTRDAALAMAELAVQEALSIGVLEHHHHHH, MSPIPLPVTDTDDAWRARIAAHRADKDEFLATHDQSPIPPADRGAFDGLRYFDIDASFRVAARYQPARDPEAVELETTRGPPAEYTRAAVLGFDLGDSHHTLTAFRVEGESSLFVPFTDETTDDGRTYEHGRYMDVDPAGADGGDEVALDFNLAYNPFCAYGGSFSCALPPADNHVPAAITAGERVDADLEHHHHHH, MSQEIQPQATQLQPFSQACENNKVPILAVLKSAFANTTRVLEIGSGTGQHAVYFATNLPQLFWQTSDQAEYLEGIKARCLLQGHQLGINNLGFPITLDVTAPWPVNGTHIDAVFSANTLHIMSKSMVEAFFNGLGEYLPQLNTLCIYGPFNYQGHYTSDSNRQFDHFLKQRDSESGIRDIEWIIALAQAQGLTLVEDIAMPTNNRLLHFKHLLALEHHHHHH, MSQEKTGLQRPVLAQLSPIAIRGHSDEGVKKLRRRNDDGCFGEALFKGNAPARSLLFGDDACHRRVENLYLLDNNPTNWSGIKTNLKREIPLLQDPTETFARMNKVMHQTLKYVKEVESINFSSRGVIDFNGEVMEDHQRIFLSVCTSVFANFSFSCQMDVEKLLSFLMALFENYSKENAYHNALHAADSVQMLFLILREKPATLIFTENEVILAFLATLSLGFVHPGVSNAFLARIDHPLVLVYGDMTTQQSAGLTALLYLLNREENRFIDLFANSGTQPFSQFLREILVETVLGTAPRLRSSLLRDLEKVAVADAVELNDIPILLAAVVILADNALALRPHAQFVNLAGLMVTEWLREAYEEEQRGMDPLVPNLRKQIYENGLGMAVDYCKVWLRPLITNIRALVPQDLYDNMEGNTEAPSMSEIQDFLVHLDSSNERWNDGSVPVIDIIRRITMHATSLDRKASKRAILNAASNRAVSGFLSRSSSMCLSPNGARMSAEVSEKKINQQPSRCEHYFSFLRLYDTYEKEGRPAAEFAAQLVFLALQLNPEYIGRYTHKGIDVCSKEECEEIAELIMKKEEAPTTAEVIASPLRDGEQTDGFILRLMEMYAERDRERERNDTLNSATNPTSNLRRTLKCYNPVYGGMYSGKKS
